Data set [1] has as its system human primary hepatocytes. The experiment in a line: Caspase activation in human primary hepatocytes. Format: cell-based. The note with it: 6 hrs following treatment; T1014G03 62.5-1000 ng/ml, TRAIL 15.6-1000 ng/mL. The procedure:
(§1) The effect of T1014G03 (lot AB22125-M2) in human primary hepatocytes was determined by measuring either caspase activation or cell viability. Human hepatocytes were treated with 15.6, 62.5, 250 or 1000 ng/mL of TRAIL (amino acid residues 114-281, Biomol Research Laboratories Inc, Plymouth Meeting, Pa.), 62.5, 125, 250, or 1000 ng/ml of isotype control mAb (hlgG1,CAT002) or 62.5, 125, 250, or 1000 ng/ml T1014G03. Caspase activation was determined at 6 hrs following treatment, while viability was determined at 24 hrs following treatment.
(§2) Caspase activity was measured using a fluorimetric assay utilizing the caspase substrate Rhodamine conjugated DEVD, (e.g., Homogeneous Fluorimetric Caspases Assay available from Roche Molecular Biochemicals (Indianapolis, Ind.)). Cell viability was determined using an ALAMAR Blue™ (Biosource International, Camarillo, Calif.) assay. […] In contrast to TRAIL, T1014G03 treatment was found not to effect either caspase or cell viability in human hepatocytes.

Data set [2] relates to human primary hepatocytes. Description: Cell viability of human primary hepatocytes (ALAMAR Blue). Format: cell-based. The note with it: 24 hrs following treatment; T1014G03 62.5-1000 ng/ml, TRAIL 15.6-1000 ng/mL. The protocol: as §1, §2
For orientation: Alamar Blue is a resazurin reagent that responds to reducing activity.

For 1 substance, caspase activity and cell viability results are on record in US7361341B2, “Methods of treating cancer using antibodies that immunospecifically bind to trail receptors” (Human Genome Sciences, Inc., priority 2001, dated 2008).

With “TRAIL: TRAIL (amino acid residues 114-281, Biomol Research Laboratories Inc)”, the caspase activity entry in data set [1] is given as “induced caspase activity at the highest concentration tested”. In addition, the cell viability entry in data set [2] is recorded as “reduced cell viability at all concentrations tested”.
